Biological target: unmodified H3 peptide (UniProt P59226)
Experiment: ITC; FIG. 3A

Sequence of SHH1 SAWADEE domain (residues 125-258) (Q9XI47 125-258): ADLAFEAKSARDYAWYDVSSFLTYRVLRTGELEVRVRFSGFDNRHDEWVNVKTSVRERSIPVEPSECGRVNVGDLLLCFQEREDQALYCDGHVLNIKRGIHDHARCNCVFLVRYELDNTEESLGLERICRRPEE

Kd: 34.8 µM
Substance: SHH1 SAWADEE domain (residues 125-258) (from UniProt Q9XI47 125-258)

Reference: US20160017348A1
